Assays:
[1] = system: NCA, MA, CEA; experiment: Specificity for NCA, MA and CEA; format: binding
Source text: In 1983, Primus et al. described the first panel of MAbs (NP-1, NP-2, NP-3, and NP-4) that defined NCA-cross-reactive, MA-cross-reactive, and CEA-specific epitopes on the CEA molecule (Primus et al., Cancer Res 1983, 43:686-92). […] The “ion-sensitive” determinant on CEA first was delineated by Hansen et al. (Clin Res 1971, 19:143) using unadsorbed anti-CEA polyclonal serum, and subsequently by Haskell et al. (Cancer Res 1983, 43:3857-64) with MAb. NP-2 and NP-3 react with MA and CEA but not with NCA, whereas NP-4 reacts only with CEA (Primus et al., 1983). […] The present Example describes the production and characterization of a second generation of anti-CEA antibodies, including the MN-15 Class I anti-CEA MAb.
The reagents, formulation, standards, and assay protocol of the sandwich EIA used in these studies have been described elsewhere (Hansen et al., Clin Chem 1989, 35:146-51). All assays were performed with microwells coated with NP-1, except in one experiment, in which microwells were coated with MN-15. […] After the second incubation, the amount of probe bound to CEA was determined by washing out the unbound probe, adding substrate (o-phenylenediamine/hydrogen peroxide), adding acid to stop the reaction, and quantitating the color product by reading the adsorbance at 490 nm. […]

[2] = system: CaPAN-1 adhesion to fibronectin; experiment: Adhesion to extracellular matrix proteins assay, CaPAN-1; format: cell-based, human
Description: (§1) Adhesion to extracellular matrix proteins assay—The assay was done using the CYTOMATRIX™ screening kit from CHEMICON® (Kit #ECM205, Temecula, Calif.). The kit contains 96-well plates with strips coated with fibronectin, vitronectin, laminin, collagen-I, or collagen-IV. Subconfluent cell cultures were used for these studies. Cells (1×10^6 cells/mol) were seeded onto coated substrate and incubated at 37° C. for 1 hour in a CO2 incubator in PBS containing Ca^2+/Mg^2+ (200 μL per well). Adherent cells were fixed and stained. The plate was washed to remove unadhered cells and stained with 100 μL per well of MTS (Cell Titer Aq 96, PROMEGA®, Madison, Wis.) for 5 minutes at room temperature. Excess stain was removed with three PBS washes. Solubilization buffer [100 μL of a 50:50 mixture of 0.1 mol/L NaH2PO4 (pH 4.5) and 50% ethanol] was added to each well. Relative attachment was determined using absorbance readings (A540 nm-A570 nm).

[3] = system: ZR75-30 binding to fibronectin; experiment: Adhesion to extracellular matrix proteins assay, ZR75-30; format: cell-based, human
Description: as §1

[4] = system: ZR75-30 cells; experiment: Collagen-based invasion assay, ZR75-30; format: cell-based, human; details: 10% FBS chemoattractant, 72-hour incubation
Description: (§2) Collagen-based invasion assay—The assay was done using CHEMICON® Kit (#ECM551, MILLIPORE®, Billerica, Mass.). Tumor cells at 80% confluence and were serum-starved for 18 to 24 hours before the assay was used. Cells were harvested with 5 mol of 2 mmol/L EDTA/PBS per 100-mm dish and incubated at 37° C. for 5 to 15 minutes. Cells were collected into 10 to 20 mol of quenching medium (serum-free DMEM containing 5% BSA) to inactivate trypsin/EDTA from the harvesting buffer. Cells were pelleted, resuspended in quenching medium (1×10^6 cells/mol), and appropriate antibody Fabs were added to individual cell aliquots. Cell invasion potential was determined as follows. Baseline invasion and invasion in the presence of a chemoattractant (10% FBS) were measured after a 72-hour incubation period at 37° C. in a 5% CO2 incubator. The bottom side of the collagen-coated polycarbonate membrane insert of the invasion chamber was placed in 400 μL of cell stain for 20 minutes at room temperature and washed. The dye was extracted and transferred into a 96-well microtiter plate for colorimetric measurements (A560 nm).

[5] = system: CaPAN-1 cells; experiment: Collagen-based invasion assay, CaPAN-1; format: cell-based, human; details: 10% FBS chemoattractant, 72-hour incubation
Description: as §2

[6] = system: GW-39 human colonic carcinoma; experiment: GW-39 intrapulmonary micrometastasis model (GW-39iv), survival; format: in vivo, nude mice; details: cells pretreated with Fab′ 10 μg/mol, 100 μg i.v. 1 day after implantation; untreated 42 days
Description: FIG. 7 illustrates an exemplary in vivo micrometastasis study. Top, immunohistochemistry of GW-39 tumor sections stained with a nonspecific antibody (left), MN-14 anti-CEACAM5 (middle), and MN-15 anti-CEACAM6 (right) and photographed at 100×. Bottom, survival of nude mice implanted with 30 μL of a 10% suspension of GW-39 human colonic cancer cells. Mice were implanted with cells that were […] for 30 minutes with MN-3-, MN-15-, or hMN-14-Fab′ (10 μg/mol). Mice also received a single 100 μg dose of the same Fab′ 1 day after cell implantation.
In vivo therapy studies—Female athymic nude mice (6 to 8 weeks old) were purchased from TACONIC® (Germantown, N.Y.). Therapy studies were done using our CEACAM5+/CEACAM6+GW-39 intrapulmonary micrometastasis model, GW-39iv (Sharkey et al., J Natl Cancer Inst 1991, 83:627-32; Blumenthal et al., Cancer Res 1992, 52:6036-44). The GW-39 human colonic carcinoma has been maintained as a serially transplanted signet-ring cell cancer line since 1966 (Goldenberg et al., Transplantation 1966, 4:760-4). […] Body weight was monitored weekly and animal survival recorded. Results were analyzed by the Kaplan-Meier estimated survival curves, and significance was determined with the log-rank comparison of survival curves. Median survival time for each treatment group also was determined. […]

B1: MN-15: murine Class I anti-CEA MAb, IgG1 kappa, binds A1B1 domain of CEACAM5 and CEACAM6 (antibody, V domains shown)
VL: DIQLTQSPAIMSASPGEKVTMTCSASSRVSYIHWYQQKSGTSPKRWIYGTSTLASGVPARFSGSGSGTSYSLTISSMEAEDAATYYCQQWSYNPPTFGAGTKLELKR
VH: EVRLVESGGGLVQGPGSLRLSCAASGFALTDYYMSWVRQSPGKTLEWLGFIANKANGHTTDYSPSVKGRFTISRDNSQTILYLQMNTLRTEDSATYYCARDMGIRWNFDVWGQGTTVTVSS
- reactivity with NCA, MA and CEA [1]: reacted with normal cross-reactive antigen (NCA), MA, and CEA
- decrease of adhesion to fibronectin [2]: 47%
- effect on binding to fibronectin [3]: not affecting the binding

B2: MN-15 Fab′: monovalent Fab′ fragment of murine MN-15 (antibody, V domains shown)
VL: B1 VL
VH: B1 VH
- reduction in cell invasion [4]: 49%
- reduction in cell invasion [5]: 73%
- median survival time [6]: > 77 days

Source: US9371393B2, “Class I anti-CEA antibodies and uses thereof” (Immunomedics, Inc., priority 2009, dated 2016)
